Four substances from patent US20240190962A1 can be followed below.

Test in all cases: cell-based or functional assay
For test [1], the target named is T1, IFN-γ receptor (IFNGR1, IFNGR2) (UniProt P15260).
T1 sequence (looked up) 1: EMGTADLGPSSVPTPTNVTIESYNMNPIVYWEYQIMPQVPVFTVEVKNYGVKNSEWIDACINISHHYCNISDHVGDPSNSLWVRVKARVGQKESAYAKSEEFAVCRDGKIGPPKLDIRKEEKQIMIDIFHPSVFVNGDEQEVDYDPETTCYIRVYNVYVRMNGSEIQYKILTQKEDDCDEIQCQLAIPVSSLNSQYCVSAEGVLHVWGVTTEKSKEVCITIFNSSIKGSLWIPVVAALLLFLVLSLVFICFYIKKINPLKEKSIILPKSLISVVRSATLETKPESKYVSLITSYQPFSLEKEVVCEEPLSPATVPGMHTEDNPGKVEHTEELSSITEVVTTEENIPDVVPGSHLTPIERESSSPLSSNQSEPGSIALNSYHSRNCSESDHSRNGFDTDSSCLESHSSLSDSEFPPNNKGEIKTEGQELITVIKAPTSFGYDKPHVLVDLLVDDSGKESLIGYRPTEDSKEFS
T1 sequence (looked up) 2: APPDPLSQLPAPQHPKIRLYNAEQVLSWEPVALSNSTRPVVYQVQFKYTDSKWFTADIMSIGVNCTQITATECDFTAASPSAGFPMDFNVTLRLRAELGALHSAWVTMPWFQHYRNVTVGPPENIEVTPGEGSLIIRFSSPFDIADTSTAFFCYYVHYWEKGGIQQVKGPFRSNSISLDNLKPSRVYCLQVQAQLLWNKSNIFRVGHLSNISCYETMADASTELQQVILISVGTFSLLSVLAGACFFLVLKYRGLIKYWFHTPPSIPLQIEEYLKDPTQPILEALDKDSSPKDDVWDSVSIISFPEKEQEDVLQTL

The target of test [2] is human IL-10 receptor (hIL-10Rα, hIL-10Rβ) (human) (UniProt Q13651).
For test [3], the target named is human IL-12 receptor complex (IL-12Rβ1, IL-12Rβ2) (human) (UniProt P42701).
For test [4], the target named is IL-23 receptor complex (IL-12Rβ1, IL-23R) (UniProt P42701).
Sequence of IL-23 receptor complex (IL-12Rβ1, IL-23R) (Q5VWK5 24-629 limits assumed, chain 2 of 2, other chains not shown): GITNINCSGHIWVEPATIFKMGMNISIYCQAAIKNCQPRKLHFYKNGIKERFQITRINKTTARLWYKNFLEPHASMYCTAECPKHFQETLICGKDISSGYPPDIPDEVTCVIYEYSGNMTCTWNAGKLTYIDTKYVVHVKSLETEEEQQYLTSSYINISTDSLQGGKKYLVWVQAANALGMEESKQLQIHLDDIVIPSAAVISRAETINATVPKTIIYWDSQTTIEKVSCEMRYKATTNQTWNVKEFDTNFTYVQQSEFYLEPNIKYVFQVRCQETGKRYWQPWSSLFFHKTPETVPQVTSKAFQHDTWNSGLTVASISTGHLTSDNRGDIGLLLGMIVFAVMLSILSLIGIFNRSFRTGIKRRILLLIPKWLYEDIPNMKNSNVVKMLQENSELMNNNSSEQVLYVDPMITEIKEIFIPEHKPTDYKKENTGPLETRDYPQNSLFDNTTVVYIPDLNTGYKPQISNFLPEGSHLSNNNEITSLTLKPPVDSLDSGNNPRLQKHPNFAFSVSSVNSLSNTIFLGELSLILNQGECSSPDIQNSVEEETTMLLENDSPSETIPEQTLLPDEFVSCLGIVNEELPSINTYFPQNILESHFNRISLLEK

Sequence of recombinant human IFN-γ (free state) (P01579 24-166 limits assumed): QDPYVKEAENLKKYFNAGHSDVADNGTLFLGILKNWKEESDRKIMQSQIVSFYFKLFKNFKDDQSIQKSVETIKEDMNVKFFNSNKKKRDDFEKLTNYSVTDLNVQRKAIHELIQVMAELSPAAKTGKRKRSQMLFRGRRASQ
Sequence of human IL-12 receptor complex (IL-12Rβ1, IL-12Rβ2) (human) (Q99665 24-862, chain 2 of 2, other chains not shown): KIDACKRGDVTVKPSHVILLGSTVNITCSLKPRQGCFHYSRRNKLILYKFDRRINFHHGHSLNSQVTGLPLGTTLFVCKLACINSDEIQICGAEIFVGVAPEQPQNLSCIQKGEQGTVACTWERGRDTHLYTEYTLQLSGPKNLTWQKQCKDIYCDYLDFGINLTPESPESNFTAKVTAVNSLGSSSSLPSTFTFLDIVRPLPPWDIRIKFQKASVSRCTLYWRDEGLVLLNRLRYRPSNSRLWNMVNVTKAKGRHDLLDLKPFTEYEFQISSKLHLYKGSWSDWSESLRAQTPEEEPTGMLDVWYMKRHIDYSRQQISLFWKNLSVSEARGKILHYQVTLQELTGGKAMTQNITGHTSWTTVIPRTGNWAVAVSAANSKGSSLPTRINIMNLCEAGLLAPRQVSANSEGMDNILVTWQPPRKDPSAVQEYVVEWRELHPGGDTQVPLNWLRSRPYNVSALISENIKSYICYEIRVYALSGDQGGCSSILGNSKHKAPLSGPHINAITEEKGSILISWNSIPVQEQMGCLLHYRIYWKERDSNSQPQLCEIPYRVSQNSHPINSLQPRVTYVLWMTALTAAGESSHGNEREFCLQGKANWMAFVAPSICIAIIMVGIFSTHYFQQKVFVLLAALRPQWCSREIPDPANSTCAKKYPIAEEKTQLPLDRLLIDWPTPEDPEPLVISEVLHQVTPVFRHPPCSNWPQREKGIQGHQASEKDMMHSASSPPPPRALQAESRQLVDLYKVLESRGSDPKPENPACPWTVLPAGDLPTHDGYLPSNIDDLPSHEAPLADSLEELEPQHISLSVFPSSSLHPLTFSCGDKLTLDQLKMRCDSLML
Sequence of recombinant human IL-23 (free state) (P29460 23-328 limits assumed): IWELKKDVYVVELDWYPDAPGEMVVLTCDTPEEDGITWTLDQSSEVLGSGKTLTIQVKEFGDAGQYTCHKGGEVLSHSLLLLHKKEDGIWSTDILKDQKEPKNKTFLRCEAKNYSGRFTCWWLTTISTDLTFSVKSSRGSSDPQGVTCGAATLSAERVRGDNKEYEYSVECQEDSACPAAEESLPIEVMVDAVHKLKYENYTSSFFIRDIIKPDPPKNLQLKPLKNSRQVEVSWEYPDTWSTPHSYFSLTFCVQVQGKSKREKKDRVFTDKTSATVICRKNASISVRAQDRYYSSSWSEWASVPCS
Sequence of recombinant human IL-23 (free state) (Q9NPF7 20-189 limits assumed): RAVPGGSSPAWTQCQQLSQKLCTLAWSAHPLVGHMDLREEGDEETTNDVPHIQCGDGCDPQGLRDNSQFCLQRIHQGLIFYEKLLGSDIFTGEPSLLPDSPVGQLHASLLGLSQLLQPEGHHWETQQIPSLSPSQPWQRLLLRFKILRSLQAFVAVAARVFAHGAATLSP
Sequence of recombinant human IL-12 (free state) (P29460 23-328 limits assumed): as the sequence (P29460 23-328 limits assumed) above
Sequence of recombinant human IL-12 (free state) (P29459 23-219 limits assumed): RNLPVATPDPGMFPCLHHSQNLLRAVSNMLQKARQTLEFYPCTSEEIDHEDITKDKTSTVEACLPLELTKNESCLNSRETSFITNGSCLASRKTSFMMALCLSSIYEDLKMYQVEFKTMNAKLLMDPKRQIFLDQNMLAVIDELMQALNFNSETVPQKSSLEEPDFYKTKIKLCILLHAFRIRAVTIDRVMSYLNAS
Sequence of human IL-10 receptor (hIL-10Rα, hIL-10Rβ) (human) (Q13651 22-578, chain 1 of 2): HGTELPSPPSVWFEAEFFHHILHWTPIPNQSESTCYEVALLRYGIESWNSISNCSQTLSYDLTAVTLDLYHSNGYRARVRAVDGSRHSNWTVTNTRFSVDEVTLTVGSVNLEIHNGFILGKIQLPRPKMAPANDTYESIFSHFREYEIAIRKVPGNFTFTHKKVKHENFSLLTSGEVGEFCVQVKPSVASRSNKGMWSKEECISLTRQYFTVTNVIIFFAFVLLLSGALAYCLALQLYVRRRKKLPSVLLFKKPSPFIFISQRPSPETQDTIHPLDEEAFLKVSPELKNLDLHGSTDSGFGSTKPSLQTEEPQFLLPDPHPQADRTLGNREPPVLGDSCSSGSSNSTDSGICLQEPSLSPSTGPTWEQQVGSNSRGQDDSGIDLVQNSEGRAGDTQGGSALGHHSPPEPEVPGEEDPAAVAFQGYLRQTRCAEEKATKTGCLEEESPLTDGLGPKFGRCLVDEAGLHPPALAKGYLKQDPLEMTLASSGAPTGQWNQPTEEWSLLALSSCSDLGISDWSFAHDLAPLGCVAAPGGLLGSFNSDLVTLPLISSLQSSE
Sequence of human IL-10 receptor (hIL-10Rα, hIL-10Rβ) (human) (Q08334 20-325, chain 2 of 2, further chain): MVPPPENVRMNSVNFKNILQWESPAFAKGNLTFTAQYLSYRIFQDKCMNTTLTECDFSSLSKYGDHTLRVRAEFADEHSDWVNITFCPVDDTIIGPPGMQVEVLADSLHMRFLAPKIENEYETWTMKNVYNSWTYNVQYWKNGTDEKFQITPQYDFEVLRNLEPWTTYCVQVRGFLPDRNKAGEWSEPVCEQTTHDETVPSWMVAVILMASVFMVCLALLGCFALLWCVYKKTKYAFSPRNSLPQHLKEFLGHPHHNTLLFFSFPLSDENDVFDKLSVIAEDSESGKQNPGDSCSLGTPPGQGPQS

In test [1], “recombinant human IFN-γ (free state) (from UniProt P01579 24-166) (ligand)” came in with an IFN-γ biological activity, HEK-IFN-γ cells of 100%; an IFN-γ biological activity, HEK-PD-1-IFN-γ cells of 100%; a PD-L1 expression (anti-PD-L1 APC, FACS), HEK-CD4-IFN-γ cells of 67 MFI; a PD-L1 expression (anti-PD-L1 APC, FACS), HEK-IFN-γ cells of 75 MFI.

For the substance “recombinant human IL-10 (free state) (from UniProt P22301 19-178) (ligand)”, in test [2], the IL-10 biological activity, HEK-IL-10 cells is 100% and the IL-10 biological activity, HEK-PD-1-IL-10 cells turned out to be 100%.

As to “recombinant human IL-12 (free state) (from UniProt P29460 23-328; P29459 23-219) (ligand)”, in test [3], the IL-12 biological activity (IFN-γ release), CD4+ T cells worked out at 100%; the IL-12 biological activity (IFN-γ release), CD8+ T cells was found to be 100%; the IL-12 biological activity, HEK-IL-12 is 100%; the IL-12 biological activity, HEK-IL-12-PD-1 is 100%. For the same substance, in test [3], the IL-12 biological activity, HEK-IL-12-PD-1 (high) is 100%; the IL-12 biological activity, HEK-IL-12-PD-1 (low) was found to be 100%; the IL-12 biological activity, HEK-IL-12 cells worked out at 100%; the IL-12 biological activity, HEK-PD-1-IL-12 is 100%. In test [3], this substance returned an IL-12 biological activity, HEK-PD-1-IL-12 cells of 100% and a PBMC (IFN-γ ng/ml) of 2300 ng/mL.

In test [4], “recombinant human IL-23 (free state) (from UniProt P29460 23-328; Q9NPF7 20-189) (ligand)” displayed an IL-23 biological activity (IFN-γ release), CD4+ T cells of 100%; an IL-23 biological activity (IFN-γ release), CD8+ T cells of 100%; an IL-23 biological activity, HEK-IL-23 cells of 100%; an IL-23 biological activity, HEK-PD-1-IL-23 cells of 100%.
